# Reference: PMC10147923, “Pain-causing stinging nettle toxins target TMEM233 to modulate NaV1.7 function” (Nature Communications, 2023)
# Several values for one entry are separate records, joined by “and”; a condition that tells them apart may be missing. Equal values may be shown once. Read-outs that look alike come from different tables or passages of the source.
# B1: TMEM233 (protein)
# chain: MSQYAPSPDFKRALDSSPEANTEDDKTEEDVPMPKNYLWLTIVSCFCPAYPINIVALVFSIMSLNSYNDGDYEGARRLGRNAKWVAIASIIIGLLIIGISCAVHFTRNA
# Target: NaV1.7 (Homo sapiens, UniProt Q15858)
# Sequence (Q15858 whole entry): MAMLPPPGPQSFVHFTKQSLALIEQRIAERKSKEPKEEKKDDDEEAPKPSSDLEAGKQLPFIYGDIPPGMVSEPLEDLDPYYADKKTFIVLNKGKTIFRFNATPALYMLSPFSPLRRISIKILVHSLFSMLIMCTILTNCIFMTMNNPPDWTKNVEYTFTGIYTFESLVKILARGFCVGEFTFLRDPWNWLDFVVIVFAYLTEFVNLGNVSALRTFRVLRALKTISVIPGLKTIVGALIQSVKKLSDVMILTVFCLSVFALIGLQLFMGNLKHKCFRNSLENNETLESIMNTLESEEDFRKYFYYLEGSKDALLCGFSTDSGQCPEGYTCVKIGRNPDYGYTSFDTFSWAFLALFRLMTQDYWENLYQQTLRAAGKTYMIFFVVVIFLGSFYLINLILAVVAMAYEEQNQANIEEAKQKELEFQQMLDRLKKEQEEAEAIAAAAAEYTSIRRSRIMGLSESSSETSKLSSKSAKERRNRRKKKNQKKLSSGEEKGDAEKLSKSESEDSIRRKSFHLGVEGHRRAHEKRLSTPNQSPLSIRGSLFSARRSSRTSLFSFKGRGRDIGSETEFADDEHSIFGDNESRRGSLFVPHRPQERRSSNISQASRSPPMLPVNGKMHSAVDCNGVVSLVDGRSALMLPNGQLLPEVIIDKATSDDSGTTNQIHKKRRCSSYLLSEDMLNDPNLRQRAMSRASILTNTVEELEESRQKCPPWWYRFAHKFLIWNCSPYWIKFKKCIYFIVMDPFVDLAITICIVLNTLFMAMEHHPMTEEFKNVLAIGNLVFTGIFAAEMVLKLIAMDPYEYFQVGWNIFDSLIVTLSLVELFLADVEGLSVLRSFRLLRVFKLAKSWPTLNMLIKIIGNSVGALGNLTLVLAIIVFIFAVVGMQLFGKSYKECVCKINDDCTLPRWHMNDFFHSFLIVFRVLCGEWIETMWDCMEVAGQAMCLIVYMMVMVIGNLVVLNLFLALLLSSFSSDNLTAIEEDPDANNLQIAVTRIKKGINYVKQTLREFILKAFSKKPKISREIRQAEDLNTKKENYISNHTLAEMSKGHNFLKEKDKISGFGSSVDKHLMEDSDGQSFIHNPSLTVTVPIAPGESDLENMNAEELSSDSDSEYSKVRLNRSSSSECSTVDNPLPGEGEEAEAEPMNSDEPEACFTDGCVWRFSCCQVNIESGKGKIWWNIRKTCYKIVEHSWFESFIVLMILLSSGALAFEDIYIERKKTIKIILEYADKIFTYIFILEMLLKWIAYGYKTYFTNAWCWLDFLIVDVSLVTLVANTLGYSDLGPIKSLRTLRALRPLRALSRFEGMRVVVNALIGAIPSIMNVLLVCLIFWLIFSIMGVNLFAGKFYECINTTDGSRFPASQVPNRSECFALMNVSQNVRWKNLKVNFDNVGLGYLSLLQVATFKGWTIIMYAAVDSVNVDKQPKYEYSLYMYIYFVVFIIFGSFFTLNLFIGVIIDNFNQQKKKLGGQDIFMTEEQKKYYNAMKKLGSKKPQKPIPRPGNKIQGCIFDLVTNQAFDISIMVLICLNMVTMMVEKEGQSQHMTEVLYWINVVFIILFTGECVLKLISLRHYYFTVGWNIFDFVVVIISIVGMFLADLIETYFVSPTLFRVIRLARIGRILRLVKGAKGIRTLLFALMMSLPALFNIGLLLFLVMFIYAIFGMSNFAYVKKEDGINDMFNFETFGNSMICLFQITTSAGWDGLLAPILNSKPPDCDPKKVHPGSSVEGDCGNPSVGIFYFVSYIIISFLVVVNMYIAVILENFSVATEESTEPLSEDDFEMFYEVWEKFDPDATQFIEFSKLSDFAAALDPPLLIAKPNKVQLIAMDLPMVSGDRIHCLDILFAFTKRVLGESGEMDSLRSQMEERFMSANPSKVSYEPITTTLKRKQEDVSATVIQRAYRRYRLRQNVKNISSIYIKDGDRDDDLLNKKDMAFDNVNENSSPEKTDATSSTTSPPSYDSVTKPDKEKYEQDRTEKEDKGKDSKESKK
# Sequence (Q07699 19-218, further chain): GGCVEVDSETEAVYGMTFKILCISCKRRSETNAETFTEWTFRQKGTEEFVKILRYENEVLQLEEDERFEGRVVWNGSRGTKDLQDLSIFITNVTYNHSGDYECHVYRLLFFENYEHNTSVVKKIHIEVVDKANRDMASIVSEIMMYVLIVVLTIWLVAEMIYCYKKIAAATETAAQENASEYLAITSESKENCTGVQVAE
# Type: cell-based
# Method: To determine recovery from fast inactivation, a 20 ms pulse to 0 mV from a holding potential of −90 mV was used to induce fast inactivation. A subsequent recovery period, ranging from 1 ms to 2216 ms in 50% increments at −90 mV, was followed by a last 20 ms test pulses to 0 mV to determine the time-dependence of recovery from fast inactivation. The proportion of available channels was determined by normalizing peak currents from the last to the first pulse. A two-phase exponential equation was fit to the normalized current, plotted as a function of time, to determine the time constants τ1 and τ2 of recovery from fast inactivation.
molecule,measurement,setting,value
B1,"Tau (Fast) RFFI, individual values",,7.679
same,"Tau (Fast) RFFI, mean","Fig 6i, NaV1.7/β1/TMEM233, mean of n = 18, NaV1.7/β1 (Mock) mean 6.695, n = 8",9.635
same,"Tau (Fast) RFFI, individual values","Fig 6i, NaV1.7/β1/TMEM233, single replicates",8.086 and 8.074 and 13.19 and 9.314 and 15.71 and 7.639 and 9.188 and 12.89 and 5.959 and 5.962 and 16.54 and 10.99 and 8.961 and 6.569
same,"Tau (Fast) RFFI, difference between means (Mock - TMEM233) ± SEM","Fig 6i, unpaired t test P = 0.0236, 95% CI -5.450 to -0.4305",-2.940 ± 1.216
same,"Tau Fast, mean","Fig 6m, co-expression with NaV1.7/β1, mean of n = 7, NaV1.7/β1 mean 6.051, n = 16",10.53
same,"Tau Fast, individual values","Fig 6m, co-expression with NaV1.7/β1, single replicates",9.314 and 15.71 and 7.639 and 8.588 and 10.41 and 9.188 and 12.89
same,"Tau Fast, mean diff. NaV1.7/β1/TMEM233 vs. NaV1.7/β1","Fig 6m, Tukey's adjusted P 0.0002, 95% CI 2.091 to 6.876",4.484
same,"Tau Fast, mean diff. vs. NaV1.7/β1/TMEM233 35-109","Fig 6m, Tukey's adjusted P 0.0026, 95% CI 1.415 to 7.059",4.237
